Patent publication US20250283886A1

Molecular target: polypeptides with a terminal leucine residue
Assay: single-molecule dwell time analysis, distribution of mean pulse durations, Leu; filtered 0.00s≤dur≤20.00s and magnitude above baseline > 15.0

B1: S. elongatus ClpS2 (protein)
chain: MSPQPDESVLSILGVPRPCVKKRSRNDAFVLTVLTCSLQAIAAPATAPGTTTTRVRQPYPHFRVIVLDDDVNTFQHVAECLLKYIPGMTGDRAWDLTNQVHYEGAATVWSGPQEQAELYHEQLRREGLTMAPLEAA
mean pulse duration (value at the dashed line): 0.35 s
